Measurements taken from the MegaScale stability set (Tsuboyama et al. 2023).

B1: EEHEE_rd4_0763 (parent)
chain: LTVHVGNVTYHFDNPEQAEEWAKRMAKKYQGQIHVKDGQFRIE
B2: 2K2A (parent)
chain: ELREAFRLYDKEGNGYISTDVMREILAELDETLSSEDLDAMIDEIDADGSGTVDFEEFMGVMT

Variants of: B1
Assay: folding stability dG (cDNA display proteolysis); higher = more stable
Conditions: PBS, room temperature

Variant	folding stability dG [kcal/mol]
D37E	1.23
D37G	1.12
D37A	0.671
W21G	0.008
W21N	0.008
W21H	0.696
Q30A	1.64
Q30S	1.66
Q30W	1.31
I42T	1.08
G6K	1.18
G6W	1.5
Q17A	1.83
Q17V	1.57
Q17R	1.57
Q17W	1.54
Q17K	1.63
Q17F	1.36
Q17L	1.71
V3P	0.241
V3L	1.06
R24H	1.44
Q32P	0.998
N7I	1.49

Variant	folding stability dG [kcal/mol]
N7L	1.55
E19S	1.39
E19T	1.41
E19D	1.06
N14H	1.57
N14W	1.24
I33W	1.34
I33P	0.833
I33T	0.877
I33R	0.644
F12A	0.274
A26T	0.749
T2D	1.22
A22V	1.23
M25N	0.629
H11G	0.755
H11A	1.31
K23Y	1.62
K23R	1.85
F40S	1.03
F40K	1.04
R41L	1.98
R41A	1.4
A18L	1.27

Variant	folding stability dG [kcal/mol]
A18F	1.46
E43I	2
E43Y	1.71
E43H	1.44
E43Q	1.29
T9P	0.963
Y29I	1.32
Y29K	0.706
Y29N	0.767
Y29W	1.61
K27W	1.45
E20N	1.58
E20M	1.7
P15R	1.88
P15V	1.71
G31F	1.69
V35C	2.27
H34Y	1.79
H34D	1.26
H34S	1.83
H34I	2.21
H34W	1.42

Variants of: B2
Assay: as above
Conditions: PBS, room temperature

Variant	folding stability dG [kcal/mol]
D30W	2.22
D30P	0.553
D30A	1.28
D30C	1.97
D30T	1.3
D30V	1.55
E1M	2.02
E1G	2.03
E1L	2.19
E1V	1.98
E1F	2.36
E1A	2.29
E1Q	2.08
T52R	1.87
T52C	1.15
T52W	1.31
T52F	1.53
T52E	1.28
G49L	1.29
G49K	1.99
G49E	1.26
G49N	1.84
G49T	0.928
G13H	1.15
G13Y	0.607

Variant	folding stability dG [kcal/mol]
G13P	-0.146
E24V	2.23
E24K	2.6
E24I	2.29
E24L	2.55
F58T	-0.411
M22C	0.958
M22L	1.97
M22W	0.847
M22Y	0.295
M22V	1.4
S34H	0.919
S34P	0.476
S34T	2.12
M41Y	1.61
M41D	-0.547
D10V	0.886
D10S	0.55
D10G	0.123
D46W	0.628
D46K	0.845
D46V	0.984
D46G	0.581
D46L	0.716
T19S	1.23

Variant	folding stability dG [kcal/mol]
T19Y	2.03
T19Q	0.688
T19K	1.67
T19D	0.211
K11M	1.77
K11F	1.82
K11Q	1.72
K11A	1.74
K11L	2.13
K11E	1.36
E31D	1.97
G51V	0.029
G51R	1.35
G51A	0.849
G51N	1.18
G51D	0.686
G51C	0.991
S18W	0.742
S18R	1.59
S18T	2.02
S18H	1.54
T63P	1
T63Y	1.58
T63I	2.07
T63V	1.82

Variant	folding stability dG [kcal/mol]
I25L	1.82
I25C	0.786
I25W	0.943
I25K	0.177
I42E	-0.498
I42Q	-0.244
I42C	0.098
I42Y	-0.094
I42K	-0.287
L26V	0.555
R7A	2.09
R7M	2.12
R7D	1.81
R7F	1.61
R7V	1.62
R7Y	1.67
S50Y	1.05
S50V	1.18
S50H	1.16
S50N	1.67
S50W	0.737
D20E	2.16
